# Data reported in patent publication US20190194280A1.
# B1: Aβ-3-7 or APP 770 (V669-D678) (peptide)
# peptide: VKMDAEFRHD
# B2: Aβ-7-3 or APP 770 (E665-E674) (peptide)
# peptide: EISEVKMDAE
# B3: Aβ5-14 or APP 770 (R676-H685) (peptide)
# peptide: RHDSGYEVHH
# B4: Aβ-5-5 or APP 770 (S667-R676) (peptide)
# peptide: SEVKMDAEFR
# B5: Aβ8-17 or APP 770 (S679-L688) (peptide)
# peptide: SGYEVHHQKL
# B6: Aβ-6-4 or APP 770 (I666-F675) (peptide)
# peptide: ISEVKMDAEF
# B7: Aβ-9-1 or APP 770 (T663-D672) (peptide)
# peptide: TEEISEVKMD
# B8: Aβ-4-6 or APP 770 (E668-H677) (peptide)
# peptide: EVKMDAEFRH
# B9: Aβ6-15 or APP 770 (H677-Q686) (peptide)
# peptide: HDSGYEVHHQ
# B10: Aβ7-16 or APP 770 (D678-K687) (peptide)
# peptide: DSGYEVHHQK
# B11: Aβ-8-2 or APP 770 (E664-A673) (peptide)
# peptide: EEISEVKMDA
# B12: Aβ17-42 (Aβ or APP 770 (L688-A713)) (peptide)
# peptide: LVFFAEDVGSNKGAIIGLMVGGVVIA
# Molecular target: Serum samples collected at week 16 from patients immunized with UBI AD vaccine (UB-311)
# Experiment: comp. ELISA, serum P205
row,Binder,IC50-based peak height
1,B1,0
2,B2,0
3,B3,0
4,B4,0
5,B5,0
6,B6,0
7,B7,0
8,B8,0
9,B9,0
10,B10,0
11,B11,0

# Molecular target: Serum samples collected at week 16 from patients immunized with UBI AD vaccine (UB-311)
# Experiment: comp. ELISA, serum P101
row,Binder,IC50-based peak height
1,B1,31
2,B2,0
3,B3,0
4,B4,10
5,B5,0
6,B6,0
7,B7,0
8,B8,1
9,B9,0
10,B10,214
11,B11,0

# Molecular target: Serum samples collected at week 16 from patients immunized with UBI AD vaccine (UB-311)
# Experiment: comp. ELISA, serum P204
row,Binder,IC50-based peak height
1,B1,1
2,B2,0
3,B3,0
4,B4,0
5,B5,0
6,B6,0
7,B7,0
8,B8,0
9,B9,0
10,B10,0
11,B11,0

# Molecular target: Serum samples collected at week 16 from patients immunized with UBI AD vaccine (UB-311)
# Experiment: comp. ELISA, serum P105
row,Binder,IC50-based peak height
1,B1,0
2,B2,0
3,B3,0
4,B4,0
5,B5,0
6,B6,0
7,B7,0
8,B8,0
9,B9,0
10,B10,0
11,B11,0

# Molecular target: Serum samples collected at week 16 from patients immunized with UBI AD vaccine (UB-311)
# Experiment: comp. ELISA, serum P201
row,Binder,IC50-based peak height
1,B1,0
2,B2,0
3,B3,0
4,B4,0
5,B5,0
6,B6,0
7,B7,0
8,B8,58
9,B9,0
10,B10,0
11,B11,0

# Molecular target: Serum samples collected at week 16 from patients immunized with UBI AD vaccine (UB-311)
# Experiment: comp. ELISA, serum P207
row,Binder,IC50-based peak height
1,B1,0
2,B2,0
3,B3,0
4,B4,0
5,B5,0
6,B6,0
7,B7,0
8,B8,1
9,B9,0
10,B10,0
11,B11,0

# Molecular target: Serum samples collected at week 16 from patients immunized with UBI AD vaccine (UB-311)
# Experiment: comp. ELISA, serum P209
row,Binder,IC50-based peak height
1,B1,0
2,B2,0
3,B3,0
4,B4,0
5,B5,0
6,B6,0
7,B7,0
8,B8,0
9,B9,0
10,B10,0
11,B11,0

# Molecular target: Serum samples collected at week 16 from patients immunized with UBI AD vaccine (UB-311)
# Experiment: comp. ELISA, serum P103
row,Binder,IC50-based peak height
1,B1,0
2,B2,0
3,B3,0
4,B4,0
5,B5,0
6,B6,0
7,B7,0
8,B8,0
9,B9,0
10,B10,0
11,B11,0

# Molecular target: Serum samples collected at week 16 from patients immunized with UBI AD vaccine (UB-311)
# Experiment: comp. ELISA, serum P210
row,Binder,IC50-based peak height
1,B1,13
2,B2,0
3,B3,0
4,B4,0
5,B5,0
6,B6,0
7,B7,0
8,B8,0
9,B9,0
10,B10,0
11,B11,0

# Molecular target: Serum samples collected at week 16 from patients immunized with UBI AD vaccine (UB-311)
# Experiment: comp. ELISA, serum P206
row,Binder,IC50-based peak height
1,B1,0
2,B2,0
3,B3,0
4,B4,0
5,B5,0
6,B6,0
7,B7,0
8,B8,0
9,B9,0
10,B10,0
11,B11,0

# Molecular target: Immune sera of baboons immunized with UBI AD vaccine
# Experiment: competitive inhibition ELISA
Binder,% inhibition at 0 µg/mL [%],% inhibition at 0.25 µg/mL [%],% inhibition at 0.5 µg/mL [%],% inhibition at 1 µg/mL [%],% inhibition at 2 µg/mL [%],% inhibition at 8 µg/mL [%],% inhibition at 32 µg/mL [%]
B12,0,5,9,10,5,0,7

# Molecular target: Serum samples collected at week 16 from patients immunized with UBI AD vaccine (UB-311)
# Experiment: comp. ELISA, serum P108
row,Binder,IC50-based peak height
1,B1,0
2,B2,0
3,B3,0
4,B4,0
5,B5,0
6,B6,0
7,B7,0
8,B8,0
9,B9,0
10,B10,0
11,B11,0

# Molecular target: Serum samples collected at week 16 from patients immunized with UBI AD vaccine (UB-311)
# Experiment: comp. ELISA, serum P107
row,Binder,IC50-based peak height
1,B1,0
2,B2,0
3,B3,0
4,B4,0
5,B5,0
6,B6,0
7,B7,0
8,B8,0
9,B9,0
10,B10,0
11,B11,0

# Molecular target: Serum samples collected at week 16 from patients immunized with UBI AD vaccine (UB-311)
# Experiment: comp. ELISA, serum P104
row,Binder,IC50-based peak height
1,B1,0
2,B2,0
3,B3,0
4,B4,0
5,B5,0
6,B6,0
7,B7,0
8,B8,0
9,B9,0
10,B10,0
11,B11,0

# Molecular target: Serum samples collected at week 16 from patients immunized with UBI AD vaccine (UB-311)
# Experiment: comp. ELISA, serum P102
row,Binder,IC50-based peak height
1,B1,0
2,B2,0
3,B3,0
4,B4,0
5,B5,0
6,B6,0
7,B7,0
8,B8,0
9,B9,0
10,B10,0
11,B11,0

# Molecular target: Serum samples collected at week 16 from patients immunized with UBI AD vaccine (UB-311)
# Experiment: comp. ELISA, serum P208
row,Binder,IC50-based peak height
1,B1,0
2,B2,0
3,B3,0
4,B4,0
5,B5,0
6,B6,0
7,B7,0
8,B8,0
9,B9,0
10,B10,0
11,B11,0

# Molecular target: Serum samples collected at week 16 from patients immunized with UBI AD vaccine (UB-311)
# Experiment: comp. ELISA, serum P202
row,Binder,IC50-based peak height
1,B1,0
2,B2,0
3,B3,0
4,B4,0
5,B5,0
6,B6,0
7,B7,0
8,B8,0
9,B9,0
10,B10,0
11,B11,0

# Molecular target: Serum samples collected at week 16 from patients immunized with UBI AD vaccine (UB-311)
# Experiment: comp. ELISA, serum P109
row,Binder,IC50-based peak height
1,B1,0
2,B2,0
3,B3,0
4,B4,0
5,B5,0
6,B6,0
7,B7,0
8,B8,0
9,B9,0
10,B10,0
11,B11,0

# Molecular target: Serum samples collected at week 16 from patients immunized with UBI AD vaccine (UB-311)
# Experiment: comp. ELISA, serum P106
row,Binder,IC50-based peak height
1,B1,0
2,B2,0
3,B3,0
4,B4,0
5,B5,0
6,B6,0
7,B7,0
8,B8,0
9,B9,0
10,B10,0
11,B11,0

# Molecular target: Serum samples collected at week 16 from patients immunized with UBI AD vaccine (UB-311)
# Experiment: comp. ELISA, serum P203
row,Binder,IC50-based peak height
1,B1,0
2,B2,0
3,B3,0
4,B4,0
5,B5,0
6,B6,0
7,B7,0
8,B8,0
9,B9,0
10,B10,0
11,B11,0
